System: β6-bound ERK
Test: β6 immunoprecipitation and ERK Western blot in transfected SW480 cells
Assay type: cell-based, human
Conditions: SW480 transfectants; mAb R6G9 immunoprecipitates probed with E10; FIG. 27(B)
From the text: Construction of the β6 Δ746-764 (SEQ ID NO. 19) deletion mutant in the vector pcDNA1neo and failure of the expressed receptor to localise to focal adhesions in Chinese hamster ovary cells has been reported (Cone et al, 1994).
Equal protein loads of cell lysates prepared from SW480 cells were immunoprecipitated with either anti-β6 monoclonal antibody (mAb R6G9) or matched isotype control antibody.

B1: β6 Δ746-764 deletion mutant: β6 subunit expressed from a deletion construct lacking the coding sequence for … (protein)
chain: WLCLGGAETCEDCLLIGPQCAWCAQENFTHPSGVGERCDTPANLLAKGCQLNFIENPVSQVEILKNKPLSVGRQKNSSDIVQIAPQSLILKLRPGGAQTLQVHVRQTEDYPVDLYYLMDLSASMDDDLNTIKELGSGLSKEMSKLTSNFRLGFGSFVEKPVSPFVKTTPEEIANPCSSIPYFCLPTFGFKHILPLTNDAERFNEIVKNQKISANIDTPEGGFDAIMQAAVCKEKIGWRNDSLHLLVFVSDADSHFGMDSKLAGIVIPNDGLCHLDSKNEYSMSTVLEYPTIGQLIDKLVQNNVLLIFAVTQEQVHLYENYAKLIPGATVGLLQKDSGNILQLIISAYEELRSEVELEVLGDTEGLNLSFTAICNNGTLFQHQKKCSHMKVGDTASFSVTVNIPHCERRSRHIIIKPVGLGDALELLVSPECNCDCQKEVEVNSSKCHHGNGSFQCGVCACHPGHMGPRCECGEDMLSTDSCKEAPDHPSCSGRGDCYCGQCICHLSPYGNIYGPYCQCDNFSCVRHKGLLCGGNGDCDCGECVCRSGWTGEYCNCTTSTDSCVSEDGVLCSGRGDCVCGKCVCTNPGASGPTCERCPTCGDPCNSKRSCIECHLSAAGQAGEECVDKCKLAGATISEEEDFSKDGSVSCSLQGENECLITFLITTDNEGKTIIHSINEKDCPKPPNIPMIMLGVSLATLLIGVVLLCIWKLLVSFHDRKEVAKFSTSTFKNVTYKHREKQKVDLSTDC
  reduction of β6-bound ERK relative to wild type receptor: > 75%

Source: patent publication US8119594B1, “Method of modulating integrin mediated cellular activity and agents useful for same” (Inter-K Pty Limited, priority 1999, dated 2012)
